Experimental data from patent EP4755449A2 (CHUGAI SEIYAKU KABUSHIKI KAISHA, dated 2026).
Changes are numbered by the printed parent chain. Read-outs that look alike come from different tables or passages of the source.

Key:
[1] = molecular target: T1, mature myostatin (human (mature form 100% identical in …, UniProt O08689 268-376 (mouse entry))); experiment: ELISA, biotinylated antigen on streptavidin plate
T1 construct: biotinylated in the ELISA; also called myostatin mature form; active myostatin
T1 sequence: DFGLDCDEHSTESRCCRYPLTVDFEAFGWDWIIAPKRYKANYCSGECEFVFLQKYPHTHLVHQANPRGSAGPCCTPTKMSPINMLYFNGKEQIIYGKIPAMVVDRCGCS

[2] = molecular target: T2, Human GDF11 with Flag-tag on N-terminus (human, UniProt O95390 11-407); experiment: ELISA, biotinylated antigen on streptavidin plate
T2 construct: processing of the expressed protein not described; also called Flag-hGDF11; human latent GDF11
T2 sequence: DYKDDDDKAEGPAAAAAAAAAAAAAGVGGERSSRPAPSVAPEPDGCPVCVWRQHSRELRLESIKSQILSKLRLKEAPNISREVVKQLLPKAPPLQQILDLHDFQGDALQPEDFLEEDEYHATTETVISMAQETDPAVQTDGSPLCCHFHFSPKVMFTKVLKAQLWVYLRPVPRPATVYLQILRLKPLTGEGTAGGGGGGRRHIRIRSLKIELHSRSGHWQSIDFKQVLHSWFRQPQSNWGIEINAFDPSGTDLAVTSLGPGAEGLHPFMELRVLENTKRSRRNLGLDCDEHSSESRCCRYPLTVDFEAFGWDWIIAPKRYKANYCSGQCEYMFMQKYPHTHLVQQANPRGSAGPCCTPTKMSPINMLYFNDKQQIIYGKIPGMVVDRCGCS

[3] = molecular target: T3, human latent myostatin (human, UniProt O14793 25-266; O14793 267-375); experiment: SPR 37C pH7.4
T3 construct: non-covalent complex of two propeptides and the mature homodimer; also called human myostatin latent form
T3 sequence 1: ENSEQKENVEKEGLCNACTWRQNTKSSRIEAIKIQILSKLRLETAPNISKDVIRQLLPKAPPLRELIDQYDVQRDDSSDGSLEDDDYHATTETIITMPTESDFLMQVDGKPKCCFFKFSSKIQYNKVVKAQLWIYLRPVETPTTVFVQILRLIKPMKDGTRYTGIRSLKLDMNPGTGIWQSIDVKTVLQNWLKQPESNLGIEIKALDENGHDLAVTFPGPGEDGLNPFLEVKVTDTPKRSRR
T3 sequence 2: T1 sequence

[4] = molecular target: T4, mouse latent myostatin (mouse, UniProt O08689 26-267; O08689 268-376); experiment: SPR 37C pH7.4
T4 sequence 1: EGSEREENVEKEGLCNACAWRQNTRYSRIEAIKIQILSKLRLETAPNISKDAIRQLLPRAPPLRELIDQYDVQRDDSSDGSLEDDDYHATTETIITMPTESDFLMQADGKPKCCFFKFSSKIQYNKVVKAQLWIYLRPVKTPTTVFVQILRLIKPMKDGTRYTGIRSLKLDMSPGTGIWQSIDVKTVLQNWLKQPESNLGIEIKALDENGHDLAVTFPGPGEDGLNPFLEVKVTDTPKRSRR
T4 sequence 2: T1 sequence

[5] = molecular target: T5, cynomolgus monkey latent myostatin (cynomolgus monkey, UniProt Q95J86 25-266; Q95J86 267-375, limits assumed); experiment: SPR 37C pH7.4
T5 construct: also called cyno latent myostatin
T5 sequence 1: T3 sequence 1 with V52A
T5 sequence 2: T1 sequence

[6] = molecular target: T3, human latent myostatin; experiment: SPR 37C pH7.4; remark: listed apart in the source

binding result [1]: no binding
binding result [2]: no binding
Kd [3]: 0.0766 nM
koff [3]: 8.65e-05 s⁻¹
kon [3]: 1.13e+06 M⁻¹ s⁻¹
Kd [4]: 0.0579 nM
koff [4]: 8.16e-05 s⁻¹
kon [4]: 1.41e+06 M⁻¹ s⁻¹
Kd [5]: 0.0717 nM
koff [5]: 7.79e-05 s⁻¹
kon [5]: 1.09e+06 M⁻¹ s⁻¹
Kd [6]: 0.0766 nM
koff [6]: 8.65e-05 s⁻¹
kon [6]: 1.13e+06 M⁻¹ s⁻¹
B1: MS_MST1032Ha-G1m/MST1032La-k0MC (antibody, human IgG1, kappa, V domains shown)
VH: QSLEESGGRLVTPGGSLTVTCRVSGIDLSSYDISWVRQAPGKGLEWIGIISYAGSTYYASWAKGRFTISKTSTTVDLKMTSLTTEDTATYFCARGVPAYSTGGDLWGPGTLVTVSS
VL: AQVLTQTASSVSAAVGGTVTINCQSSQSVYDNNWLSWFQQKPGQPPKLLIYWASTLASGVPSRFKGSGSGTQFTLTISDLECDDAATYYCAGGYGGGLYAFGGGTKVEIKR
notes: rabbit/human chimeric; also called MST1032-G1m
